In patent publication US20250171549A1 (Amgen, published 2025):
Where no end group is shown, it is not given here.

Assays:
human CCR8 = molecular target: T1, human CCR8 (human, UniProt P51685 1-355); experiment: KinExA, HUT78 cells
T1 construct: Transiently expressed on HEK 293T cells, or endogenous on HuT78/HUT78 cells and primary human regulatory T cells; also called hCCR8; human C-C chemokine receptor type 8
Description: The cells were counted using a hemocytometer. The HUT78 cells were titrated and incubated with two different constant antibody concentrations, one at 48 pM and the other at 2 nM, in HUT media (RPMI 1640, 10% FBS, 10 mM HEPES, 2 mM L-Glut, 1 mM Sod. Pyr, 0.1 mM NEAA, 50 uM 2-ME) with 0.05% Sodium Azide. For the high [Ab] equilibrium set, HUT78 cells were titrated from 62.5 million per milliliter concentration 1:2 for 10 points in eppendorf tubes and equilibrated with 2 nM antibody in a total volume of 400 μl. For the low [Ab] equilibrium set, HUT78 cells were titrated from 3.89 million per milliliter concentration, 1:2 for 10 points in 50 ml Fulcon tubes and equilibrated with 48 pM antibody in a total volume of 15.5 mL.
For each equilibrium sample the free [Ab] was detected by running the equilibrium samples through the coated beads followed by a quick wash with the running buffer (1×PBS pH7.4+1% BSA+0.05% Sodium Azide). The secondary detection antibody (goat anti-huIgG (H+L) Alexa 647) was run through the flow cell at 680 ng/ml and 500 μL per run. The KinExA voltage output signal was used in KinExA software to calculate the Kd. […]
Cells in media were serially diluted and incubated with 48 pM or 2 nM active binding site concentration of antibody in media in the presence of 0.05% NaN3, and allowed to equilibrate. The free mAb left in the supernatant was measured as described above. […]

human CCR4 = molecular target: T2, human CCR4 (human, UniProt P51679 1-360); experiment: flow cytometry, HEK293T transfectants
T2 construct: Transiently expressed on HEK293T; also called hCCR4
T2 sequence: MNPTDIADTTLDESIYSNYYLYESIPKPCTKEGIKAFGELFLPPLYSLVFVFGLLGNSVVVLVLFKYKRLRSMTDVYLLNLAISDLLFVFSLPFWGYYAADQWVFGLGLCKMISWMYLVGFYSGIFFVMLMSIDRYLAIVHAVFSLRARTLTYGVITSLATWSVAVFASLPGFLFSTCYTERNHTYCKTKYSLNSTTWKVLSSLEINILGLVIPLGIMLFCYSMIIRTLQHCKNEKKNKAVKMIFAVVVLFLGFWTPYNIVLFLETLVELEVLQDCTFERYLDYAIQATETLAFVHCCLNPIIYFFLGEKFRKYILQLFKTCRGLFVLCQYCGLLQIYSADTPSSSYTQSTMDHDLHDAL
From the text: Transfected cells were used to assess an antibody's binding specificity using flow cytometry on host Human Embryonic Kidney (HEK) 293T cells. Proteins were expressed on HEK 293T cells by transfection using human CCR8 (SEQ ID NO: 21), human CCR8 with an A27G point mutation (SEQ ID NO: 23), murine CCR8 (SEQ ID NO: 24), rat CCR8 (SEQ ID NO: 25), human CCR4 (SEQ ID NO: 26), or control expression vectors, Gibco™ Opti-MEM® media (Gibco), and 293Fectin™ reagent (Invitrogen) according to the manufacturer's instructions. Human T-cell lymphoma (HuT78) cell lines were also used to determine specificity to endogenously expressed CCR8.
Transfected HEK293T cells (24 hours after transfection) or HuT78 cells were resuspended in FACS buffer (PBS+2% Fetal Bovine Serum) and added to a 96-well plate. […]
Alexa Fluor 647 goat anti-human or rat IgG (Fcγ fragment specific) secondary antibodies (Jackson ImmunoResearch) made up in FACS buffer at 5.0 μg/mL were added to each well, and cells were resuspended and incubated for 15 minutes at 4° C. […] Samples were resuspended in FACS buffer and read on either IntelliCyt® iQue or BD Accuri™ Flow Cytometer with an Intellicyt HyperCyt autosampler.

[1] = molecular target: T3, Peptide 2 (biotinylated N-terminus CCR8 peptide, amino acids 7-18) (human, also: biotinylated, position not given here); experiment: flow cytometry, biotinylated peptide on streptavidin beads
T3 construct: Captured on streptavidin polystyrene beads
T3 peptide: LSVTTVTDYYYP
Description: (§1) The biotinylated human CCR8 peptides were captured on streptavidin polystyrene beads (Spherotech) in FACS buffer (PBS+2% Fetal Bovine Serum) at a final protein concentration of 50-100 ng/ml and incubated for 30 minutes at room temperature. Beads were washed twice with FACS buffer to remove unbound protein, centrifuged to pellet the beads, and resuspended and pooled together in StabilGuard (SurModics). The pooled biotinylated human CCR8 coated beads were added to hybridoma supernatant samples in a 96-well plate, such that the final antibody concentration was 5.0 μg/mL, and then incubated for one hour at room temperature.
(§2) Plates were washed twice with FACS buffer, centrifuged to pellet the beads, and supernatant was removed and resuspended in FACS buffer to remove unbound antibodies. Alexa Fluor 488 goat anti-human or rat IgG (Fcγ fragment specific) secondary antibodies (Jackson ImmunoResearch) made up in FACS buffer at 5.0 μg/mL were added to each well, resuspended with beads and incubated for 15 minutes at room temperature. Plates were washed twice with FACS buffer, centrifuged to pellet the beads, and supernatant was removed and resuspended in FACS buffer to remove unbound secondary antibodies. Samples were then resuspended in FACS buffer and read on either IntelliCyt® iQue Flow Cytometer.
(§3) Data are represented as a ratio of geometric mean binding to beads coated with specific peptide divided by geometric mean of binding to a bead coated with a negative control peptide (peptide with unrelated sequence). A value above two represents presence of binding.

[2] = molecular target: T4, Peptide 4 (biotinylated N-terminus CCR8 peptide, amino acids 19-30) (human, also: biotinylated, position not given here); experiment: as above
T4 construct: Captured on streptavidin polystyrene beads
T4 peptide: DIFSSPCDAELI
Description: as §1, §2, §3

[3] = molecular target: T5, Peptide 5 (biotinylated N-terminus CCR8 peptide, amino acids 25-35) (human, also: biotinylated, position not given here); experiment: as above
T5 construct: Captured on streptavidin polystyrene beads
T5 peptide: CDAELIQTNGK
Description: as §1, §2, §3

T1 sequence (P51685 whole entry): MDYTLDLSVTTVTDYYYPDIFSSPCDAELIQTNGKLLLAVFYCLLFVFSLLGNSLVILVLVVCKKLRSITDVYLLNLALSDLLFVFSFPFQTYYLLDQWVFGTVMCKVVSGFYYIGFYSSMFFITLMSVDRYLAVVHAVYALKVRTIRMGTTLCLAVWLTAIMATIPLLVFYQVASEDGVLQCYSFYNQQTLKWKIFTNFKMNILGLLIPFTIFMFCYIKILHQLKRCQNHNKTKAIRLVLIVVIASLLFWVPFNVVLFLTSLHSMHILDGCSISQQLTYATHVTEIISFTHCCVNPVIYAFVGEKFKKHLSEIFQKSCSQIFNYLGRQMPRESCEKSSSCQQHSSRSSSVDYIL

B1: Antibody 1 IgG2 (antibody)
heavy: EVQLVESGGGLVKPGGSLRLSCAASGFTFSNARMGWVRQAPGKGLEWVGRIKSKTEGGTRDYAAPVKGRFTISRDDSKNTLYLQMNSLKTEDTAVYYCTSYSGVWGQGTMVTVSSASTKGPSVFPLAPCSRSTSESTAALGCLVKDYFPEPVTVSWNSGALTSGVHTFPAVLQSSGLYSLSSVVTVPSSNFGTQTYTCNVDHKPSNTKVDKTVERKCCVECPPCPAPPVAGPSVFLFPPKPKDTLMISRTPEVTCVVVDVSHEDPEVQFNWYVDGVEVHNAKTKPREEQFNSTFRVVSVLTVVHQDWLNGKEYKCKVSNKGLPAPIEKTISKTKGQPREPQVYTLPPSREEMTKNQVSLTCLVKGFYPSDIAVEWESNGQPENNYKTTPPMLDSDGSFFLYSKLTVDKSRWQQGNVFSCSVMHEALHNHYTQKSLSLSPGK
light: not shown
notes: IgG2; tested as hybridoma supernatant
- Kd (human CCR8): 0.216 nM
- binding result (human CCR4): no binding (tested: 5.0 ug/mL)
- binding result [1]: no binding
- binding result [2]: no binding
- binding result [3]: no binding

B2: Antibody 2 IgG2 (antibody, V domains shown)
VH: QVQLVESGGGVVQPGRSLRLSCAASGFTFSNYGMHWVRQAPGKGLEWVAVISYDGSNKFYADSVKGRFTISRDNSKKTLYLQMSSLRVEDTAVYYCARAGGIGRFDYWGQGTLVTVSS
VL: DFVMTQTPLSLSVTPGQPASISCKYSQSLLHSDGKTYLFWYLQKPGQPPHLLIYEVSNRFSGVPDRFSGSGSGTDFTLKISRVEAEDVGLYYCMQTLKLPLTFGGGTKVEINR
notes: as for B1
- Kd (human CCR8): > 5 nM
- binding result (human CCR4): no binding (tested: 5.0 ug/mL)
- binding result [1]: no binding
- binding result [2]: no binding
- binding result [3]: no binding
